We go through four proteins from doi:10.1101/209643 (bioRxiv, 2017).

Where a chain is given by its changes, count along the chain named. Names and notes keep the numbering of the source.

This series concerns the molecule itself. Kind of series: TIRF microscopy of filament polymerisation.

B1: Cdc11-containing septin complex (Cdc10, Cdc3, Cdc12, Cdc11), wild type (complex)
chain 1: MSAATATAAPVPPPVGISNLPNQRYKIVNEEGGTFTVMLCGESGLGKTTFINTLFQTVLKRADGQQHRQEPIRKTVEIDITRALLEEKHFELRVNVIDTPGFGDNVNNNKAWQPLVDFIDDQHDSYMRQEQQPYRTKKFDLRVHAVLYFIRPTGHGLKPIDIETMKRLSTRANLIPVIAKADTLTAQELQQFKSRIRQVIEAQEIRIFTPPLDADSKEDAKSGSNPDSAAVEHARQLIEAMPFAIVGSEKKFDNGQGTQVVARKYPWGLVEIENDSHCDFRKLRALLLRTYLLDLISTTQEMHYETYRRLRLEGHENTGEGNEDFTLPAIAPARKLSHNPRYKEEENALKKYFTDQVKAEEQRFRQWEQNIVNERIRLNGDLEEIQGKVKKLEEQVKSLQVKKSHLK
chain 2: MDPLSSVQPASYVGFDTITNQIEHRLLKKGFQFNIMVVGQSGLGKSTLINTLFASHLIDSATGDDISALPVTKTTEMKISTHTLVEDRVRLNINVIDTPGFGDFIDNSKAWEPIVKYIKEQHSQYLRKELTAQRERFITDTRVHAILYFLQPNGKELSRLDVEALKRLTEIANVIPVIGKSDTLTLDERTEFRELIQNEFEKYNFKIYPYDSEELTDEELELNRSVRSIIPFAVVGSENEIEINGETFRGRKTRWSAINVEDINQCDFVYLREFLIRTHLQDLIETTSYIHYEGFRARQLIALKENANSRSSAHMSSNAIQR
chain 3: MSLKEEQVSIKQDPEQEERQHDQFNDVQIKQESQDHDGVDSQYTNGTQNDDSERFEAAESDVKVEPGLGMGITSSQSEKGQVLPDQPEIKFIRRQINGYVGFANLPKQWHRRSIKNGFSFNLLCVGPDGIGKTTLMKTLFNNDDIEANLVKDYEEELANDQEEEEGQGEGHENQSQEQRHKVKIKSYESVIEENGVKLNLNVIDTEGFGDFLNNDQKSWDPIIKEIDSRFDQYLDAENKINRHSINDKRIHACLYFIEPTGHYLKPLDLKFMQSVYEKCNLIPVIAKSDILTDEEILSFKKTIMNQLIQSNIELFKPPIYSNDDAENSHLSERLFSSLPYAVIGSNDIVENYSGNQVRGRSYPWGVIEVDNDNHSDFNLLKNLLIKQFMEELKERTSKILYENYRSSKLAKLGIKQDNSVFKEFDPISKQQEEKTLHEAKLAKLEIEMKTVFQQKVSEKEKKLQKSETELFARHKEMKEKLTKQLKALEDKKKQLELSINSASPNVNHSPVPTKKKGFLR
chain 4: MSGIIDASSALRKRKHLKRGITFTVMIVGQSGSGRSTFINTLCGQQVVDTSTTILLPTDTSTEIDLQLREETVELEDDEGVKIQLNIIDTPGFGDSLDNSPSFEIISDYIRHQYDEILLEESRVRRNPRFKDGRVHCCLYLINPTGHGLKEIDVEFIRQLGSLVNIIPVISKSDSLTRDELKLNKKLIMEDIDRWNLPIYNFPFDEDEISDEDYETNMYLRTLLPFAIIGSNEVYEMGGDVGTIRGRKYPWGILDVEDSSISDFVILRNALLISHLHDLKNYTHEILYERYRTEALSGESVAAESIRPNLTKLNGSSSSSTTTRRNTNPFKQSNNINNDVLNPASDMHGQSTGENNETYMTREEQIRLEEERLKAFEERVQQELLLKRQELLQREKELREIEARLEKEAKIKQEE
Regarding B1, the binding result is “binds”.

B2: Cdc11 D65T septin complex (Cdc10, Cdc3, Cdc12, Cdc11 D65T-GFP) (complex)
chain 1: B1 chain 1
chain 2: B1 chain 2
chain 3: B1 chain 3
chain 4: B1 chain 4 with D65T
For the protein B2, the binding result is given as “binds”.

B3: Double mutant septin complex (Cdc10, Cdc3, Cdc12 T75A, Cdc11 D65T-GFP) (complex)
chain 1: B1 chain 1 with T75A
chain 2: B1 chain 2
chain 3: B1 chain 3
chain 4: B1 chain 4 with D65T
B3: the binding result is “binds”.

B4: Cdc12 T75A septin complex (Cdc10, Cdc3, Cdc12 T75A, Cdc11) (complex)
chain 1: B1 chain 1 with T75A
chain 2: B1 chain 2
chain 3: B1 chain 3
chain 4: B1 chain 4
For the protein B4, the binding result was “binds”.
